Laboratory results published in patent US5932432.

Assays:
[1] = molecular target: yeast RAS1 protein with the carboxy-terminal sequence CAIL (yeast) (UniProt P01119)
[2] = molecular target: yeast RAS1 protein with the carboxy-terminal sequence CAIM (yeast) (UniProt P01119)

lowest protein concentration detected by radiolabeling protein blots with [3H]FPP (in vitro farnesylation, fluorography) [1]: < 12 | lowest protein concentration detected by radiolabeling protein blots with [3H]FPP (in vitro farnesylation, fluorography) [2]: 0.12 mmol m^-2
Substance: farnesyl:protein transferase (FTase) present in a tobacco protein extract (enzyme)
